The target in this test is Todarodes pacificus hemocyanin (Todarodes pacificus). Put plainly: cryo-EM structure; single-particle cryo-EM of purified hemocyanin, 2.9 mg/ml, 100 mM HEPES pH 7.5, 200 mM CaCl2; asymmetric refinement (no symmetry imposed), overall 5.1 Å; model by rigid-body fitting.

Turning to “Todarodes pacificus hemocyanin (natural protein)”, the stoichiometry N (commonly a count of units in the complex or per binding partner) worked out at 10.

The values above are taken from publication PMC6503924.
